# Assay results as given in patent US20240084041A1 (Regeneron, published 2024).
# T1: MET on EBC-1 cells (human, UniProt P08581 25-1390)
# T1 chain: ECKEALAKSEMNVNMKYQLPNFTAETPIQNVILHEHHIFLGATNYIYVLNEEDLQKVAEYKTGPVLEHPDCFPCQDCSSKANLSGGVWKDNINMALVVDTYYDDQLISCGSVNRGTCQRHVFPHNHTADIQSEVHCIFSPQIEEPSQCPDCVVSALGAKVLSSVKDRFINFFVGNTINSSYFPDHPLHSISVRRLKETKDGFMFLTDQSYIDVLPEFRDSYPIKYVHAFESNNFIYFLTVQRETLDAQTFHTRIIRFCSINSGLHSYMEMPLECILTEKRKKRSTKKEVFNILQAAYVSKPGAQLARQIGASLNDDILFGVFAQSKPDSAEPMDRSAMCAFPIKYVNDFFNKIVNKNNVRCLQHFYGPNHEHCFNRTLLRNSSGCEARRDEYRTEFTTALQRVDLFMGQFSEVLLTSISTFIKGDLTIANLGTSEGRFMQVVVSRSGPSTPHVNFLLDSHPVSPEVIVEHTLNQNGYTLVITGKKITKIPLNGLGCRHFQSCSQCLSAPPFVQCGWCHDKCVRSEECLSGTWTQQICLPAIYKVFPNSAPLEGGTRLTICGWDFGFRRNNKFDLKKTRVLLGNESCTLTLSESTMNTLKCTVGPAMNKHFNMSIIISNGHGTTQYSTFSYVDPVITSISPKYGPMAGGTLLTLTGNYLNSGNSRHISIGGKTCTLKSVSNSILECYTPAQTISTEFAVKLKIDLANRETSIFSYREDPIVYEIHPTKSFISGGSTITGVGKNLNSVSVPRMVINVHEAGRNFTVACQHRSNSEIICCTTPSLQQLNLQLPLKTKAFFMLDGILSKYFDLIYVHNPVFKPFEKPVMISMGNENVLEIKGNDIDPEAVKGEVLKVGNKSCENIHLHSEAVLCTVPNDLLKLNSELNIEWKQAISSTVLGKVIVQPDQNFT
# Columns and labels:
# Assay in all cases: cell-based or functional assay
# [1] = biological target: T2, MET on NCI-H596 cells (MET exon14 skip mutation) (human, UniProt P08581 25-1390)
# [2] = biological target: T2, MET on NCI-H596 cells (MET exon14 skip …); remark: listed apart in the source
# MET on EBC-1 cells = biological target: T1, MET on EBC-1 cells
Binder,"Relative MET Level (immunoblot, 18 hours, 5 µg/ml, NCI-H596) [1]","Relative Cell Growth (n = 3), NCI-H596 in soft agar, 5 µg/ml, two weeks [2]","Relative Cell Growth (n = 3), EBC-1, 0.1 µg/mL, 5 days (MET on EBC-1 cells)","Relative Cell Growth (n = 3), EBC-1, 1 µg/mL, 5 days (MET on EBC-1 cells)"
"H4H13306P2 (antibody, V domains shown) VH: EVQLVESGGGLVQPGTSLRLSCAASGFTFDDYAMHWVRQAPGKGLEWVSGITWNSYNIDYADSVKGRFTISRDNAKNSLYLQMNSLRAEDTALYYCAKDDDYSNYVYFDYWGQGTLVTVSS VL: not shown",0.5 relative to hFc control,2.96 relative to control (no treatment),–,–
"H4H14639D Bispecific Antibody (bispecific antibody, V domains shown) VH 1: EVQLVESGGGLVQPGTSLRLSCAASGFTFDDYAMHWVRQAPGKGLEWVSGITWNSYNIDYADSVKGRFTISRDNAKNSLYLQMNSLRAEDTALYYCAKDDDYSNYVYFDYWGQGTLVTVSS VH 2: EVQLVESGGGLVQPGGSLRLSCAASGFIVTTNYMTWLRQAPGKGLEWVSLIYSSGHTYYADSVKGRFTISRHNSKNTLYLQMDSLRAEDTAVYYCASAFAADVFDIWGQGTMVTVSS VL: not shown",0.24 relative to hFc control,1.07 relative to control (no treatment),0.397 relative to control,0.462 relative to control
"H4H13312P2 (antibody, V domains shown) VH: EVQLVESGGGLVQPGGSLRLSCAASGFIVTTNYMTWLRQAPGKGLEWVSLIYSSGHTYYADSVKGRFTISRHNSKNTLYLQMDSLRAEDTAVYYCASAFAADVFDIWGQGTMVTVSS VL: not shown",0.35 relative to hFc control,1.69 relative to control (no treatment),–,–
